Molecular target: soluble LDL receptor from the supernatant of IFN-gamma-treated human WISH cells (antiviral factor) (human) (UniProt P01130)
Test: immunoaffinity chromatography on agarose-coupled C7; antiviral activity recovered in the pH 11 eluate (el.2 and el.3) relative to the load

Chain of UniProt P01130 (P01130 25-313 limits assumed): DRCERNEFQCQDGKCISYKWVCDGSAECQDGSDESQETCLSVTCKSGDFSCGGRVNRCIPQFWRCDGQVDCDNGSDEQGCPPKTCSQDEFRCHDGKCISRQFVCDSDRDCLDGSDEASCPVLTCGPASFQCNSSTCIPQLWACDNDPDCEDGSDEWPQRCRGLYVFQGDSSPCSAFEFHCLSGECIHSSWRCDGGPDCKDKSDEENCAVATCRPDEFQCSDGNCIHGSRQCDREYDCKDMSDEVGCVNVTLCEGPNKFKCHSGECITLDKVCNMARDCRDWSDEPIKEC

“monoclonal antibody C7 (hybridoma C7, ATCC CRL 1691)” gave a recovery of 32%.

Source: patent publication US20020004226A1
